B1: GluA2i: N385D (protein)
parent chain: MQKIMHISVLLSPVLWGLIFGVSSNSIQIGGLFPRGADQEYSAFRVGMVQFSTSEFRLTPHIDNLEVANSFAVTNAFCSQFSRGVYAIFGFYDKKSVNTITSFCGTLHVSFITPSFPTDGTHPFVIQMRPDLKGALLSLIEYYQWDKFAYLYDSDRGLSTLQAVLDSAAEKKWQVTAINVGNINNDKKDETYRSLFQDLELKKERRVILDCERDKVNDIVDQVITIGKHVKGYHYIIANLGFTDGDLLKIQFGGANVSGFQIVDYDDSLVSKFIERWSTLEEKEYPGAHTATIKYTSALTYDAVQVMTEAFRNLRKQRIEISRRGNAGDCLANPAVPWGQGVEIERALKQVQVEGLSGNIKFDQNGKRINYTINIMELKTNGPRKIGYWSEVDKMVVTLTELPSGNDTSGLENKTVVVTTILESPYVMMKKNHEMLEGNERYEGYCVDLAAEIAKHCGFKYKLTIVGDGKYGARDADTKIWNGMVGELVYGKADIAIAPLTITLVREEVIDFSKPFMSLGISIMIKKPQKSKPGVFSFLDPLAYEIWMCIVFAYIGVSVVLFLVSRFSPYEWHTEEFEDGRETQSSESTNEFGIFNSLWFSLGAFMQQGCDISPRSLSGRIVGGVWWFFTLIIISSYTANLAAFLTVERMVSPIESAEDLSKQTEIAYGTLDSGSTKEFFRRSKIAVFDKMWTYMRSAEPSVFVRTTAEGVARVRKSKGKYAYLLESTMNEYIEQRKPCDTMKVGGNLDSKGYGIATPKGSSLGTPVNLAVLKLSEQGVLDKLKNKWWYDKGECGAKDSGSKEKTSALSLSNVAGVFYILVGGLGLAMLVALIEFCYKSRAEAKRMKVAKNPQNINPSSSQNSQNFATYKEGYNVYGIESVKI
B2: GluA2i: N392Q (protein)
parent chain: B1 parent chain

How the values were obtained:
[1] = outside-out patch, 10 mM glutamate, τw,des; settings: glycan lost; control: GluA2i WT + γ-2
[2] = outside-out patch, steady state-to-peak ratio; settings: glycan lost; control: GluA2i WT + γ-2

Row | Protein | other: channel desensitisation kinetics [1] | other: steady-state channel current [2]
1 | B1 | no change | increases
2 | B2 | no change | increases

From publication PMC4405707
